This test concerns the target Arctic mutant (E22G) amyloid-β 1-42 peptide (human).

For the substance “recombinant human Bri2 BRICHOS domain, monomer (domain or fragment)”, the reduction of the nucleation units generated during Aβ42^arc fibrillization, calculated from the fitted ThT kinetics, with monomeric rh Bri2 BRICHOS up to an equal ratio is 80%.

The values are drawn from article PMC9396614.
